These results are taken from patent publication US20250326860A1 (ADAGENE PTE, published 2025).

The target of experiment [1] is T1, cynomolgus monkey CD20 on B cells (cynomolgus monkey, UniProt M4ZHZ6 1-297).
T1 construct: whole, on cells
T1 sequence: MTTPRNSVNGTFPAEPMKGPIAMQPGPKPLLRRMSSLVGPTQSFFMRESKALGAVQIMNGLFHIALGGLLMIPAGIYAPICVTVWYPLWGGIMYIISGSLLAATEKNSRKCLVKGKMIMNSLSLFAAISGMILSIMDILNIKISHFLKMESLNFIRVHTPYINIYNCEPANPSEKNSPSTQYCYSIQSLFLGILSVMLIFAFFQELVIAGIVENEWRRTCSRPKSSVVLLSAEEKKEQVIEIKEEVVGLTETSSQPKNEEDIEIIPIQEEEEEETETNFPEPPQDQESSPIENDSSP
Nature of the experiment: flow cytometry, monkey B cells. For orientation: Flow cytometry measures light scatter and fluorescence of single cells or particles in a stream.

Experiment [2] deals with T2, human CD3 on cells (Jurkat cells, human T cells) (human, UniProt P07766 23-207).
T2 construct: whole, on cells
T2 sequence (P07766 23-207): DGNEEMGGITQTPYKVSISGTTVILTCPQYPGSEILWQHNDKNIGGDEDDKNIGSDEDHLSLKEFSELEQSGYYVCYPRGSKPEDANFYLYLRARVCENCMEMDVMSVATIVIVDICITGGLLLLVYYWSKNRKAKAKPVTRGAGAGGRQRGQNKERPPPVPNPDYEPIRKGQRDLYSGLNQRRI
Kind of experiment: binding to human CD8+ T cells.

Experiment [3] deals with T2, human CD3 on cells (Jurkat cells, human …). Kind of experiment: binding to human CD4+ T cells.
In experiment [4] the target is T3, cynomolgus monkey CD3 on T cells (cynomolgus monkey, UniProt Q95LI5 22-198).
T3 construct: whole, on cells
T3 sequence (Q95LI5 22-198): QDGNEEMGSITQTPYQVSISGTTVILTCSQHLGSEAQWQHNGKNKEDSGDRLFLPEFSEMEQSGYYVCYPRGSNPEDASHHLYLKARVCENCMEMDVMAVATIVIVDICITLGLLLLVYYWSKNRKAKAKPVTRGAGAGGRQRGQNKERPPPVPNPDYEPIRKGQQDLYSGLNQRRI
Nature of the experiment: flow cytometry, monkey CD3+ T cells. The text has this: (§1) Human PBMCs were freshly isolated from the blood of healthy donors by density gradient centrifugation using Histopaque-1077 (Sigma). Human CD3+ T cells were further isolated from PBMCs using the Human T Cell Enrichment Kit (Stem Cell Technologies). Monkey PBMCs were isolated from a naïve cynomolgus monkey by density gradient centrifugation using Histopaque-1077 (Sigma). Monkey CD3+ T cells were isolated from PBMCs using the Pan T Cell Isolation Kit Non-Human Primate (Miltenyi Biotec). Purified human or monkey CD3+ T cells were stained with the testing antibodies as the primary antibody and the APC-labelled anti-human-Fc antibody (BioLegend) as the secondary antibody. After washing, the cells were analyzed on the CytoFLEX flow cytometer (Beckman Coulter) and the data was analyzed by FlowJo software.

Experiment [5] has as its target T3, cynomolgus monkey CD3 on T cells. Kind of experiment: flow cytometry, monkey CD8+ T cells. On the procedure: (§2) Binding of CD20xCD3 bispecific or SAFE-bispecific antibodies to purified human CD3+ T cells was determined by flow cytometry. Briefly, human or monkey PBMC were freshly purified with Ficoll gradient solution—Histopaque 1077 (Sigma) from a healthy donor and CD3+ T cells were isolated using EasySep™ Human T cell Enrichment Kit (StemCell). Before staining, […] human Fc receptors on CD3+ T cells were blocked with Human Fc Block (BD). Then cells were incubated with fluorescence labeled antibody mixture (APC-Cy7 Mouse Anti-human CD3, PerCP-CyTM5.5 Anti-human CD4 and FITC anti-human CD8) for 15 minutes at 4° C. After washing the cells once with PBS supplemented with 2% FBS, cells were aliquoted to 96-well plates at 2×10⁵ cells per well, and cells were incubated with serial diluted bispecific, SAFE-bispecific or IgG1 isotype control antibodies for 30 minutes at 4° C. After washing the cells twice with PBS supplemented with 2% FBS, cell surface bound antibody was detected by incubating the cells with APC-labeled mouse anti-human IgG Fc secondary antibody for 30 minutes at 4° C. Cells were washed and detected by FACS using Cytoflex (BeckMan) and data was analyzed by FlowJo. The mean fluorescence (MFI) of each antibody binding to human or monkey CD4+ T cells and CD8+ T cell populations were fitted with four-parameter non-linear regression to get EC₅₀ values by GraphPad Prism software.

The target in experiment [6] is T2, human CD3 on cells (Jurkat cells, human …). Kind of experiment: flow cytometry, human CD3+ T cells.
Excerpt: as §1

In experiment [7] the target is T4, human CD20 on cells (human B cells; Raji, SU-DHL-8, SU-DHL-4, A3KAW, NAMALWA) (human, UniProt P11836 1-297).
T4 construct: whole, on cells
T4 sequence (looked up): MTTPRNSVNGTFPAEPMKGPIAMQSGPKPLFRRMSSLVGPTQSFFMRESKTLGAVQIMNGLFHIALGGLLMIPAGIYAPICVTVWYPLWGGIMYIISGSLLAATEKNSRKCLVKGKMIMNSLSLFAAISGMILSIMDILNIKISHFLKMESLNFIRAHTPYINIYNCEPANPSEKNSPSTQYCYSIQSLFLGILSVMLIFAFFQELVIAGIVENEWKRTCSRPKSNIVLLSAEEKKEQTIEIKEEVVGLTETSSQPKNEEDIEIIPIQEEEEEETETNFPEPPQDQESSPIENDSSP
Nature of the experiment: flow cytometry, human B cells. On the procedure: After washing the cells twice with PBS supplemented with 2% FBS, cell surface bound antibody was detected by incubating the cells with APC-labeled mouse anti-human IgG Fc secondary antibody for 30 minutes at 4° C. Cells were washed and detected by FACS using Cytoflex (BeckMan) and data was analyzed by FlowJo.

The target of experiment [8] is T2, human CD3 on cells (Jurkat cells, human …). Nature of the experiment: binding to human CD3+ T cells.
Experiment [9] addresses T3, cynomolgus monkey CD3 on T cells. Nature of the experiment: flow cytometry, monkey CD4+ T cells. On the procedure:
as §2

For experiment [10], the target named is T2, human CD3 on cells (Jurkat cells, human …). Nature of the experiment: flow cytometry, human CD4+ T cells. On the procedure:
as §2

Experiment [11] concerns the target T4, human CD20 on cells (human B cells; …). Kind of experiment: flow cytometry, SU-DHL-8 cells. On the procedure: (§3) Raji, SU-DHL-8, SU-DHL-4, A3KAW and NAMALWA were B-cell lymphoma cell lines with various CD20 expression levels on cell surface. Briefly, the test antibodies were serial diluted and were incubated with the tumor cells on ice. After washing, the cells were subsequently incubated with the APC-labelled anti-human-Fc secondary antibody (BioLegend) on ice. The cells were then washed with PBS prior to analysis by the CytoFLEX flow cytometer (Beckman Coulter). The data was analyzed by FlowJo software.

The target is the same in experiment [12]. Kind of experiment: flow cytometry, A3KAW cells. On the procedure:
as §3

In experiment [13] the target is T1, cynomolgus monkey CD20 on B cells. Nature of the experiment: flow cytometry, monkey B cells. The text has this:
(§4) Human and monkey PBMCs were isolated as mentioned above. Human B cells were further isolated from PBMCs using the EasySep™ Human B Cell Isolation Kit (Stem Cell Technologies). Monkey B cells were isolated from PBMCs using the Non-Human B Primate Cell Isolation Kit (Stem Cell Technologies). Purified human or monkey B cells were stained with the testing antibodies as the primary antibody and the APC-labelled anti-human-Fc antibody (BioLegend) as the secondary antibody. After washing, the cells were analyzed on the CytoFLEX flow cytometer (Beckman Coulter) and the data was analyzed by FlowJo software.
This is another data set of the same source.

For experiment [14], the target named is T4, human CD20 on cells (human B cells; …). Nature of the experiment: flow cytometry, Raji cells. The protocol: as §3
For experiment [15] the target is unchanged. Kind of experiment: flow cytometry, NAMALWA cells. On the procedure: as §3
The target of experiment [16] is T2, human CD3 on cells (Jurkat cells, human …). Kind of experiment: flow cytometry, human CD8+ T cells. On the procedure: as §2
The target of experiment [17] is T4, human CD20 on cells (human B cells; …). Nature of the experiment: flow cytometry, SU-DHL-4 cells. On the procedure: as §3
For experiment [18] the target is unchanged. Kind of experiment: flow cytometry, human B cells.
Excerpt: as §4
This is another data set of the same source.

Like-named read-outs stand apart in the source and are kept apart here.

B1: TY25455 (bispecific antibody, human IgG1, kappa, N297A)
light: QIVLSQSPAILSASPGEKVTMTCRASSSVSYIHWFQQKPGKSPKPWIYATSNLASGVPVRFSGSGSGTSYSLTISRVEAEDAATYYCQQWTSNPPTFGGGTKVEIKRTVAAPSVFIFPPSDEQLKSGTASVVCLLNNFYPREAKVQWKVDNALQSGNSQESVTEQDSKDSTYSLSSTLTLSKADYEKHKVYACEVTHQGLSSPVTKSFNRGEC
heavy: EVQLVQSGAEVKKPGSSVKVSCKASGYTFTSYNMHWVRQAPGKGLEWIGAIYPGSGDTSYNQKFKGRVTITADKSTSTAYMELSSLRSEDTAVYYCARSTYYGGDWYFNVWGQGTLVTVSSASTKGPSVFPLAPSSKSTSGGTAALGCLVKDYFPEPVTVSWNSGALTSGVHTFPAVLQSSGLYSLSSVVTVPSSSLGTQTYICNVNHKPSNTKVDKKVEPKSCDKTHTCPPCPAPELLGGPSVFLFPPKPKDTLMISRTPEVTCVVVDVSHEDPEVKFNWYVDGVEVHNAKTKPREEQYASTYRVVSVLTVLHQDWLNGKEYKCKVSNKALPAPIEKTISKAKGQPREPQVYTLPPSRKKLTKNQVKLTCLVKGFYPSDIAVEWESNGQPENNYKTTPPVLDCDGSFFLYSKLTVDKSRWQQGNVFSCSVMHEALHNHYTQKSLSLSPGK
chain: QAVVTQEPSLTVSPGGTVTLTCGSSTGAVTTSNYPNWVQQKPGQAPRGLIGGTNKRAPGVPARFSGSLLGGKAALTLSGAQPEDEAEYYCALWYSNLWVFGGGTKLTVLGGGGSGGGGSGGGGSGGGGSEVQLVESGGGLVQPGGSLRLSCAASGFTFNTYAINWVRQAPGKGLEWVGRIRSKYNNYATYYAESVKGRFTISRDDSKNTLYLQINSLRAEDTAVYYCVRHGNFGTSYVSWFAYWGQGTLVTVSSEPKSSDKTHTCPPCPAPELLGGPSVFLFPPKPKDTLMISRTPEVTCVVVDVSHEDPEVKFNWYVDGVEVHNAKTKPREEQYASTYRVVSVLTVLHQDWLNGKEYKCKVSNKALPAPIEKTISKAKGQPREPQVYTDPPSRDELTKNQVSLTCLVDGFYPSDIAVEWESNGQPENCYKTTPPVLDSDGSFFLYSKLTVDKSRWQQGNVFSCSVMHEALHNHYTQDSLSLSPGK
notes: also called parental CD20xCD3 bispecific antibody of TY25606; TY2455
The EC50 is the concentration needed to bring the measured effect to its halfway point. Turning to B1, the EC50 in [1] was 39.1 nM; in [2] it was 25.4 nM; in experiment [3] it was 18.1 nM; in experiment [4], 10.5 nM; in experiment [5] it was 82.1 nM; in [6] it was 9.52 nM. Further, the EC50 in [8] was 21.7 nM; in [9], 27.3 nM. Further, the “max MFI” value in experiment [4] amounted to 2100 MFI; in experiment [6] it was 4850 MFI. In experiment [7], the binding result is “binds”.

B2: TAC2392 (bispecific antibody)
light: QIVLTQSPSSLSASVGDRVTITCRASSSVSYIHWFQQKPGKSPKPLIYATSNLASGVPVRFSGSGSGTDYTLTISSLQPEDFATYYCQQWTSNPPTFGGGTKVEIKRTVAAPSVFIFPPSDEQLKSGTASVVCLLNNFYPREAKVQWKVDNALQSGNSQESVTEQDSKDSTYSLSSTLTLSKADYEKHKVYACEVTHQGLSSPVTKSFNRGEC
heavy: QVQLVQSGAEVKKPGASVKVSCKASGYTFTSYNMHWVRQAPGQGLEWMGAIYPGNGDTSYNQKFQGRVTITADKSISTAYMELSSLRSEDTAVYYCARSTYYGGDWYFNVWGAGTLVTVSSASTKGPSVFPLAPSSKSTSGGTAALGCLVKDYFPEPVTVSWNSGALTSGVHTFPAVLQSSGLYSLSSVVTVPSSSLGTQTYICNVNHKPSDTKVDKKVEPKSCDKTHTCPPCPAPPVAGPSVFLFPPKPKDTLMISRTPEVTCVVVDVKHEDPEVKFNWYVDGVEVHNAKTKPREEEYNSTYRVVSVLTVLHQDWLNGKEYKCKVSNKALPAPIEKTISKAKGQPREPQVYTLPPSREEMTKNQVSLTCDVSGFYPSDIAVEWESDGQPENNYKTTPPVLDSDGSFFLYSKLTVDKSRWEQGDVFSCSVMHEALHNHYTQKSLSLSPGK
chain: not shown
notes: also called CD20xCD3 bispecific antibody
As for B2, the EC50 in experiment [10] is 62.1 nM; in experiment [11], 48.6 nM; in [4], 26.6 nM; in experiment [5], 58.6 nM; in experiment [12] it was 487 nM; in [13], 83.8 nM. The EC50 in experiment [14] was found to be 135 nM; in [15] it was 592 nM; in experiment [6], 6.92 nM; in experiment [16], 37.2 nM; in [17], 26.9 nM; in [18], 12.6 nM. Also, the EC50 in experiment [9] was determined as 120 nM. Also, the “Max MFI” value in experiment [11] amounted to 3640 MFI; in experiment [12], 675000 MFI; in [14], 22000 MFI; in experiment [15], 447000 MFI; in [17], 2.29e+06 MFI. Moreover, the “max MFI” value in experiment [4] was 3200 MFI; in experiment [13] it was 6020 MFI; in [6] it was 6490 MFI; in experiment [18], 32300 MFI.
